Test results reported in article PMC10715029, “Interaction and assembly of the DNA replication core proteins of Kaposi’s sarcoma-associated herpesvirus” (Microbiology Spectrum, 2023).

Columns and labels:
Conditions in all cases: partners not purified
GAL4-ORF56 = biological target: T1, GAL4-ORF56 (Kaposi's sarcoma-associated herpesvirus …, UniProt Q76RG1 1-843); assay: two-hybrid; mammalian two-hybrid (GAL4/VP16) in 293T cells, pGal4(5×)-Luc reporter, GAL4 and VP16 fusions coexpressed with further FLAG-tagged core replication proteins, luciferase at 24 h, fold activation over empty vector; radicicol (0.25-1 µM) inhibited the activation by GAL4-ORF56, VP16-ORF44 and F-ORF40/41 dose-dependently
T1 construct: KSHV ORF56, primase (PRI); also called GALF4-ORF56; source: 293T, transfected, mammalian two-hybrid fusion
T1 sequence: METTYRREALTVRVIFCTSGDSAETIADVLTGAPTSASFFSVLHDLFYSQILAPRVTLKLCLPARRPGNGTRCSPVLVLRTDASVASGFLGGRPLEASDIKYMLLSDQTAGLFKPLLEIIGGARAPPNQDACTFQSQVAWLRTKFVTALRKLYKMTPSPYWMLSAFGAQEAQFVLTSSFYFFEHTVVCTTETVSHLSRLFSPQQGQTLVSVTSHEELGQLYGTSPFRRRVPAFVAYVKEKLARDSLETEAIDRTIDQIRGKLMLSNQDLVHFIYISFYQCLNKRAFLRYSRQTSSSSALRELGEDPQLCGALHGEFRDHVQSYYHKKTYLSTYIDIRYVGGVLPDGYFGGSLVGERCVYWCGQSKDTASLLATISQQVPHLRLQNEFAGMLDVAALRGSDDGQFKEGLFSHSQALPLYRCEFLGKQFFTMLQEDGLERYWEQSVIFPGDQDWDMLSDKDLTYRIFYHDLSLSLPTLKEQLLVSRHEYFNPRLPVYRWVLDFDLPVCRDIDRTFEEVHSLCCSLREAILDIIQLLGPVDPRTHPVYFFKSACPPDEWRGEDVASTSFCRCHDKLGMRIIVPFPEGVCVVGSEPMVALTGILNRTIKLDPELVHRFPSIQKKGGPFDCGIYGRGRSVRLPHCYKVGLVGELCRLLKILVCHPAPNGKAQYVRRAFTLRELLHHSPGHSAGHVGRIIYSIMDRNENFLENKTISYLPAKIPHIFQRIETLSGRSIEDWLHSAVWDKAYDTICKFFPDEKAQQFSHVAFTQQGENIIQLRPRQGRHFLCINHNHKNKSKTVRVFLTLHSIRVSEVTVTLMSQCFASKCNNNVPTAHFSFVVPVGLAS

GAL4-ORF40/41 [1] = biological target: T2, GAL4-ORF40/41 (Kaposi's sarcoma-associated herpesvirus …, UniProt Q2HR92 1-669); assay: as above
T2 construct: KSHV ORF40/41, primase-associated factor (PAF); source: 293T, transfected, mammalian two-hybrid fusion
T2 sequence: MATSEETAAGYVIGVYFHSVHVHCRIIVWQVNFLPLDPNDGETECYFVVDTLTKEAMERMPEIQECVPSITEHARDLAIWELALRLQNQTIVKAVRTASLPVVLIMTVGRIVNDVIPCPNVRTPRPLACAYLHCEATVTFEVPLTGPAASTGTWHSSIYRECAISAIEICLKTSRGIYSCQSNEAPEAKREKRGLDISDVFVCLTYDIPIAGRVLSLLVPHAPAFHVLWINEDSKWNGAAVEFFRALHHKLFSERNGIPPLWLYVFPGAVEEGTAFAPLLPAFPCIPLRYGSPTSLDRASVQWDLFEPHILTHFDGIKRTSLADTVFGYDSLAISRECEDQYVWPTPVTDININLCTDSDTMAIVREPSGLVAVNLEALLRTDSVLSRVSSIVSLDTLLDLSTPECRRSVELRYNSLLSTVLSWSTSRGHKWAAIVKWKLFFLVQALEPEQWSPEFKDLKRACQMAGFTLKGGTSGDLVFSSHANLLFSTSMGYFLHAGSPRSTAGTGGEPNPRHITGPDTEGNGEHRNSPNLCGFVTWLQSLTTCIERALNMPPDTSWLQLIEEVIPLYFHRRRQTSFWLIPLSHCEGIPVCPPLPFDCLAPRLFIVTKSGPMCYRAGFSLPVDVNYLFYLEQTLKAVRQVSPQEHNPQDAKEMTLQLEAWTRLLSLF

GAL4-ORF40/41 [2] = biological target: T2, GAL4-ORF40/41; assay: two-hybrid; mammalian two-hybrid (GAL4/VP16) in 293T cells, pGal4(5×)-Luc reporter, only the GAL4 and the VP16 fusion coexpressed, luciferase at 24 h, fold activation over empty vector; radicicol (0.25-1 µM) inhibited the activation by GAL4-ORF59 and VP16-ORF9 dose-dependently

B1: VP16-ORF44 (natural protein)
chain: MDSSEGCTDMDEPSPGFILNMTSDAKVRSVVEQIDRLSNITTSPPEMGWYDLEFDPLEDEGPFLPFSAYVITGTAGAGKSTSVSALHQNLNCLITGATVVAAQNLSRALKSYCPTIYHAFGFKSRHINICQRKVPKVTQSSIEQLQRYELARYWPTVTDIIREFMRKKQKGQYSSLSQSAFRLLCRMGGANLWTSNIIVIDEAGTLSSHILTAVVFFYWFYNSWLDTPLYRNGAVPCIVCVGSPTQTDAFQSVFNHTQQRNEISACDNVLTFLLGKREVADYIRLDENWALFINNKRCTDPQFGHLLKTLEYNLDISPELMDYIDRFVVPKSKILDPLEYAGWTRLFISHQEVKSFLATLHTCLSSNKDAVSTKLFTCPVVCEVFTEPFEEYKRAVGLTHMTPIEWVTKNLFRLSNYSQFADQDMAVVGTYITDASTQITFATKFVKNSYATLTGKTKKCICGFHGSYQRFKSILDGELFIESHSHDNPAYVYSFLSTLLYNAMYSFYAHGVKQGHEEFLRDLRELPVSQELISEMSSEDVLGQEGDTDAFYLTASLPPSPTHAALPTLVAYYSGAKELFCNRLALARRHFGDEFLHSDFSTFTVNIVVRDGVDFVSTSPGLHGLVAYASTIDTYIIQGYTFLPVRFGRPGGQRLSEDLRRKMPSIVVQDSSGFIACLENNVTKMTETLEGGDVFNICCAGDYGISSNLAMTIVKAQGVSLSRVAISFGNHRNIRASLVYVGVSRAIDARYLVMDSNPLKLMDRGDAQSPSSKYIIKALCNPKTTLIY
notes: KSHV ORF44, helicase (HEL); source: 293T, transfected, mammalian two-hybrid fusion
**Q.** What does the source list for B1?
**A.** fold reporter activation (F-ORF40/41 coexpressed) (GAL4-ORF56): ≤ 55 fold; fold reporter activation (F-ORF56 coexpressed) (GAL4-ORF40/41 [1]): ≤ 60 fold

B2: VP16-ORF40/41 (natural protein)
chain: MATSEETAAGYVIGVYFHSVHVHCRIIVWQVNFLPLDPNDGETECYFVVDTLTKEAMERMPEIQECVPSITEHARDLAIWELALRLQNQTIVKAVRTASLPVVLIMTVGRIVNDVIPCPNVRTPRPLACAYLHCEATVTFEVPLTGPAASTGTWHSSIYRECAISAIEICLKTSRGIYSCQSNEAPEAKREKRGLDISDVFVCLTYDIPIAGRVLSLLVPHAPAFHVLWINEDSKWNGAAVEFFRALHHKLFSERNGIPPLWLYVFPGAVEEGTAFAPLLPAFPCIPLRYGSPTSLDRASVQWDLFEPHILTHFDGIKRTSLADTVFGYDSLAISRECEDQYVWPTPVTDININLCTDSDTMAIVREPSGLVAVNLEALLRTDSVLSRVSSIVSLDTLLDLSTPECRRSVELRYNSLLSTVLSWSTSRGHKWAAIVKWKLFFLVQALEPEQWSPEFKDLKRACQMAGFTLKGGTSGDLVFSSHANLLFSTSMGYFLHAGSPRSTAGTGGEPNPRHITGPDTEGNGEHRNSPNLCGFVTWLQSLTTCIERALNMPPDTSWLQLIEEVIPLYFHRRRQTSFWLIPLSHCEGIPVCPPLPFDCLAPRLFIVTKSGPMCYRAGFSLPVDVNYLFYLEQTLKAVRQVSPQEHNPQDAKEMTLQLEAWTRLLSLF
notes: KSHV ORF40/41, primase-associated factor (PAF); source: 293T, transfected, mammalian two-hybrid fusion
**Q.** With B2 as the binder, how does the “fold reporter activation (F-ORF44 coexpressed)” value (GAL4-ORF56) read?
**A.** The value was at most 280 fold.

B3: VP16-ORF6 (natural protein)
chain: MALKGPQTLEENIGSAAPTGPCGYLYAYVTHNFPIGEASLLGNGYPEAKVFSLPLLHGLTVESDFPLNVKAVHKKIDATTASVKLTSYHREAIVFHNTHLFQPIFQGKGLEKLCRESRELFGFSTFVEQQHKGTLWSPEACPQLPCANEIFMAVIVTEGFKERLYGGKLVPVPSQTTPVHIGEHQAFKIPLYDEDLFGPSRAQELCRFYNPDISRYLHDSIFTGIAQALRVKDVSTVIQASERQFVHDQYKIPKLVQAKDFPQCASRGTDGSTLMVIDSLVAELGMSYGLSFIEGPQDSCEVLNYDTWPIFENCETPDARLRALEVWHAEQALHIGAQLFAANSVLYLTRVAKLPQKNQRGDANMYNSFYLQHGLGYLSEATVKENGASAFKGVPVSALDGSSYTLQHLAYASSFSPHLLARMCYYLQFLPHHKNTNSQSYNVVDYVGTAAPSQMCDLCQGQCPAVCINTLFYRMKDRFPPVLSNVKRDPYVITGTAGTYNDLEILGNFATFREREEEGNPVEDAPKYTYWQLCQNITEKLASMGISEGGDALRTLIVDIPSFVKVFKGIDSTVEAELLKFINCMIKNNYNFRENIKSVHHILQFACNVYWQAPCPVFLTLYYKSLLTVIQDICLTSCMMYEQDNPAVGIVPSEWLKMHFQTMWTNFKGACFDKGAITGGELKIVHQSMFCDLFDTDAAIGGMFAPARMQVRIARAMLMVPKTIKIKNRIIFSNSTGAESIQAGFMKPASQRDSYIVGGPYMKFLNALHKTLFPSTKTSALYLWHKIGQTTKNPILPGVSGEHLTELCNYVKASSQAFEEINVLDLVPDTLTSYAKIKLNSSILRACGQTQFYATTLSCLSPVTQLVPAEEYPHVLGPVGLSSPDEYRVKVAGRSVTIVQSTLKQAVSTNGRLRPIITVPLVVNKYTGSNGNTNVFHCANLGYFSGRGVDRNLRPESVPFKKNNVSSMLRKRHVIMTPLVDRLVKRIVGINSGEFEAEAVKRSVQNVLEDRDNPNLPKTVVLELVKHLGSSCASLTEEDVIYYLGPYAVLGDEVLSLLSTVGQAGVPWTAEGVASVIQDIIDDCELQFVGPEEPCLIQGQSVVEELFPSPGVPSLTVGKKRKIASLLSDLDL
notes: source: 293T, transfected, mammalian two-hybrid fusion
**Q.** Which fold reporter activation (GAL4-ORF40/41 [2]) does the source give for B3 here?
**A.** The fold reporter activation was 56 fold.
